Measurements reported in article PMC2111462.

Molecular target: purified rat skin collagen type I (rat) (UniProt P02454)
Assay: affinity chromatography

Sequence of UniProt P02454 (P02454 152-1207, chain 1 of 2): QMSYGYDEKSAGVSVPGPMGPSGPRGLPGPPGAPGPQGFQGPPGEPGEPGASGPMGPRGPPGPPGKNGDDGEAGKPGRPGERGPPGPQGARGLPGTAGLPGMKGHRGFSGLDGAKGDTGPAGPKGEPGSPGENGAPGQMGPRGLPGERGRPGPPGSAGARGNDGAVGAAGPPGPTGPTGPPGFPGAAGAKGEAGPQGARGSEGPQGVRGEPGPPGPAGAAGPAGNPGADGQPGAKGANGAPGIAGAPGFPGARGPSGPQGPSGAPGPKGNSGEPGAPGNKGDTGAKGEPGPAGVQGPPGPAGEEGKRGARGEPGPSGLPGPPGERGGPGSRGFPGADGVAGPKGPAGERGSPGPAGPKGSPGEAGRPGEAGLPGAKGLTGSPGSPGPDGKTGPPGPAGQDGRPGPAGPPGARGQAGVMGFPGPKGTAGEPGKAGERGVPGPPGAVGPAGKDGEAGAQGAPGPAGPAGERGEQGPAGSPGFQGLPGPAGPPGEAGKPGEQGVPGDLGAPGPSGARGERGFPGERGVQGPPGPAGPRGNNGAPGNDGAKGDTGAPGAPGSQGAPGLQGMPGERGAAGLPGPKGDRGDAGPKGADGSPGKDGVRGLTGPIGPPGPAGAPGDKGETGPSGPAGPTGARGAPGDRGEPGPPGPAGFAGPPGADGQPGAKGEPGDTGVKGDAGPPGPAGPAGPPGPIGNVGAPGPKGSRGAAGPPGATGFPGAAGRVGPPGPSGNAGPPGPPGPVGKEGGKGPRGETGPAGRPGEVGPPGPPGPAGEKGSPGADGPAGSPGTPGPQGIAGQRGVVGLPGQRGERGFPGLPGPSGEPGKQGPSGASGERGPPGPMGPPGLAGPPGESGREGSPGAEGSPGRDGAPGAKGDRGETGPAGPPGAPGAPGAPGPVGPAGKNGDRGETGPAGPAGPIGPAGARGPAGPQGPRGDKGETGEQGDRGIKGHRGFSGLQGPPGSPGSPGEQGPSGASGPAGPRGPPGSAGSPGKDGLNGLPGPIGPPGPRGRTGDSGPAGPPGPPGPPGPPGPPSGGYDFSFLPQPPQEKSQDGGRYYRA
Sequence of UniProt P02454 (P02466 86-1125, chain 2 of 2, further chain): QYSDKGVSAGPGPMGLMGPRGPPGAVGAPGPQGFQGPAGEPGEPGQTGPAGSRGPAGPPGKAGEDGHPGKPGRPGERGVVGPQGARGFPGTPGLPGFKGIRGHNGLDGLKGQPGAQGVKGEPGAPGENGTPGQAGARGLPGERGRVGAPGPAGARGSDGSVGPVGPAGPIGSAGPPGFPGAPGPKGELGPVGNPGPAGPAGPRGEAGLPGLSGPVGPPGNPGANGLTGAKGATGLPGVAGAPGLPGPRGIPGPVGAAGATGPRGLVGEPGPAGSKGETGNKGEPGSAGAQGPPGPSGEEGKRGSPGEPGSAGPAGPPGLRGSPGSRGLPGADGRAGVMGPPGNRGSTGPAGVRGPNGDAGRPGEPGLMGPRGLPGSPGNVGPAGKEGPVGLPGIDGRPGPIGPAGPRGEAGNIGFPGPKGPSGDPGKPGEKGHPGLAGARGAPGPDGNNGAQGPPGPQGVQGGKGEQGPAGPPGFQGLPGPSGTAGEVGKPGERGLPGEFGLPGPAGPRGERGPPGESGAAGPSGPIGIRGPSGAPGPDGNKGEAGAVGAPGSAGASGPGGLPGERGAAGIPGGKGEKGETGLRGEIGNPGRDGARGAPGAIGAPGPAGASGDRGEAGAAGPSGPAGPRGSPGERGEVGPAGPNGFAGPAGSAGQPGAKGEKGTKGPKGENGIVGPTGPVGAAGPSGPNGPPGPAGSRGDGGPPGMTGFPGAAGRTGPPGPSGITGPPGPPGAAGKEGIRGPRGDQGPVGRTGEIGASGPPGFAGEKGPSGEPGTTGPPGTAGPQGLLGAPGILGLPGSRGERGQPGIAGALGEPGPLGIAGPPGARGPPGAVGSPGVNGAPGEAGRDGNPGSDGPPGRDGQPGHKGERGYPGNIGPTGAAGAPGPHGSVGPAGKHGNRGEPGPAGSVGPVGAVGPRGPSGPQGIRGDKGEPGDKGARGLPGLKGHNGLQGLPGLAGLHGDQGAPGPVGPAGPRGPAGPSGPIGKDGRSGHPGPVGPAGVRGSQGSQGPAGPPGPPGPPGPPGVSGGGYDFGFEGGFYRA

For “human plasma fibronectin (natural protein)”, which KBr concentration at which the bound fibronectin eluted is on record?
Its KBr concentration at which the bound fibronectin eluted is 1 M.
